# Laboratory results: patent publication US20040233833
# Where “and” joins values, the source holds several entries; their conditions need not be identical. Identical values can stand only once.
# Columns and labels:
# [1] = target: REGα (UniProt Q06323)
# [2] = target: REGα/β (UniProt Q06323)
# [3] = target: REGγ (wild-type) (UniProt P61289)
# [4] = target: REGγ(K188A) (UniProt P61289)
# [5] = target: REGγ(K188C) (UniProt P61289)
# [6] = target: REGγ(K188D) (UniProt P61289)
# [7] = target: REGγ(K188E) (UniProt P61289)
# Chain of REGγ(K188E) (P61289 whole entry K188E): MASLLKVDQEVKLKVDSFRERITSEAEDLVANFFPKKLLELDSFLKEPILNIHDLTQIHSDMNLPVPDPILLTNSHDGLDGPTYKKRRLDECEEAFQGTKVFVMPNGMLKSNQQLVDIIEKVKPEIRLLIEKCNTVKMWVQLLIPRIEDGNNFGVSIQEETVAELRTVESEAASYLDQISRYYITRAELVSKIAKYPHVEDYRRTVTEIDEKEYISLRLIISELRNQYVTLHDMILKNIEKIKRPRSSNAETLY
# [8] = target: REGγ(K188F) (UniProt P61289)
# Chain of REGγ(K188F) (P61289 whole entry K188F): as the sequence (P61289 whole entry K188E) above, with E188F counted along it
# [9] = target: REGγ(K188H) (UniProt P61289)
# Chain of REGγ(K188H) (P61289 whole entry K188H): as the sequence (P61289 whole entry K188E) above, with E188H counted along it
# [10] = target: REGγ(K188I) (UniProt P61289)
# Chain of REGγ(K188I) (P61289 whole entry K188I): as the sequence (P61289 whole entry K188E) above, with E188I counted along it
# [11] = target: REGγ(K188N) (UniProt P61289)
# Chain of REGγ(K188N) (P61289 whole entry K188N): as the sequence (P61289 whole entry K188E) above, with E188N counted along it
# [12] = target: REGγ(K188P) (UniProt P61289)
# Chain of REGγ(K188P) (P61289 whole entry K188P): as the sequence (P61289 whole entry K188E) above, with E188P counted along it
# [13] = target: REGγ(K188Q) (UniProt P61289)
# Chain of REGγ(K188Q) (P61289 whole entry K188Q): as the sequence (P61289 whole entry K188E) above, with E188Q counted along it
# [14] = target: REGγ(K188R) (UniProt P61289)
# Chain of REGγ(K188R) (P61289 whole entry K188R): as the sequence (P61289 whole entry K188E) above, with E188R counted along it
# [15] = target: REGγ(K188S) (UniProt P61289)
# Chain of REGγ(K188S) (P61289 whole entry K188S): as the sequence (P61289 whole entry K188E) above, with E188S counted along it
# Chain of REGγ(K188D) (P61289 whole entry K188D): as the sequence (P61289 whole entry K188E) above, with E188D counted along it
# Chain of REGα (Q06323 whole entry): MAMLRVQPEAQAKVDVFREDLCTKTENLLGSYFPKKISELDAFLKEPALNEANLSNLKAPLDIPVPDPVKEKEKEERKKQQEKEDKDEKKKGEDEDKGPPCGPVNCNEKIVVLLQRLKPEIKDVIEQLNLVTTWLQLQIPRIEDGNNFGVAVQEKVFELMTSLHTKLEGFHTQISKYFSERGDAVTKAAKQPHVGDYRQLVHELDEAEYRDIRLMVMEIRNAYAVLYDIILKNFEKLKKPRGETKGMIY
# Chain of REGα/β (Q06323 whole entry, chain 1 of 2): as the sequence (Q06323 whole entry) above
# Chain of REGα/β (chain, as listed by the source, chain 2 of 2): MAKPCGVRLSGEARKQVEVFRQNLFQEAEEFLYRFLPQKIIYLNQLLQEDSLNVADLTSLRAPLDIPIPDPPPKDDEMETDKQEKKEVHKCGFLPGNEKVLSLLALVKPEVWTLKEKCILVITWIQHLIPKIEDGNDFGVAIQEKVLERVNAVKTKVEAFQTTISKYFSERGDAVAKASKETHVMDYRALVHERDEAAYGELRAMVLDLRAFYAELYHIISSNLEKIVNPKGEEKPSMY
# Chain of REGγ(K188C) (P61289 whole entry K188C): as the sequence (P61289 whole entry K188E) above, with E188C counted along it
# Chain of REGγ(K188A) (P61289 whole entry K188A): as the sequence (P61289 whole entry K188E) above, with E188A counted along it
# Chain of REGγ (wild-type) (P61289 whole entry): as the sequence (P61289 whole entry K188E) above, with E188K counted along it
substance,measurement,setting,value
20S proteasome (human red blood cell proteasomes),"Stimulation of cleavage (x-fold), AAF-MCA",[1],6 x-fold
same,"Stimulation of cleavage (x-fold), DEVD(SEQ ID NO: 8)-MCA",[1],10 x-fold
same,"Stimulation of cleavage (x-fold), FSR-MCA",[1],10 x-fold
same,"Stimulation of cleavage (x-fold), IEGR(SEQ ID NO: 5)-MCA",[1],3 x-fold
same,"Stimulation of cleavage (x-fold), IETD(SEQ ID NO: 6)-MCA",[1],30 x-fold
same,"Stimulation of cleavage (x-fold), LGHD(SEQ ID NO: 7)-MCA",[1],11 x-fold
same,"Stimulation of cleavage (x-fold), LLE-βNA",[1],9 x-fold
same,"Stimulation of cleavage (x-fold), LLVY(SEQ ID NO: 1)-MCA",[1],16 x-fold
same,"Stimulation of cleavage (x-fold), LLVY-MCA",[1],16 x-fold
same,"Stimulation of cleavage (x-fold), LRR-MCA",[1],16 x-fold
same,"Stimulation of cleavage (x-fold), LY-MCA",[1],5 x-fold
same,"Stimulation of cleavage (x-fold), VLK-MCA",[1],7 x-fold
same,"Stimulation of cleavage (x-fold), YVAD(SEQ ID NO: 9)-MCA",[1],9 x-fold
same,hydrolysis of the 21-residue peptide P21 by the proteasome (HPLC),[1],REGγ(K188E or D) and REGα markedly increased sunstrate consumption
same,"% Degraded, substrate F1-EPQPQ (SEQ ID NO: 15), 5 hr",[2],55%
same,"% Degraded, substrate F1-KSQPQ (SEQ ID NO: 16), 5 hr",[2],85%
same,"% Degraded, substrate F1-QHQ, 5 hr",[2],80%
same,"% Degraded, substrate F1-QPQ, 5 hr",[2],85%
same,"% Degraded, substrate F1-QQQ, 5 hr",[2],85%
same,"% Degraded, substrate F1-EPQPQ (SEQ ID NO: 15), 5 hr",[3],5%
same,"% Degraded, substrate F1-KSQPQ (SEQ ID NO: 16), 5 hr",[3],15%
same,"% Degraded, substrate F1-QHQ, 5 hr",[3],5%
same,"% Degraded, substrate F1-QPQ, 5 hr",[3],5%
same,"% Degraded, substrate F1-QQQ, 5 hr",[3],15%
same,"Stimulation of cleavage (x-fold), AAF-MCA",[3],1 x-fold
same,"Stimulation of cleavage (x-fold), DEVD(SEQ ID NO: 8)-MCA",[3],2 x-fold
same,"Stimulation of cleavage (x-fold), FSR-MCA",[3],7 x-fold
same,"Stimulation of cleavage (x-fold), IEGR(SEQ ID NO: 5)-MCA",[3],1 x-fold
same,"Stimulation of cleavage (x-fold), IETD(SEQ ID NO: 6)-MCA",[3],1 x-fold
same,"Stimulation of cleavage (x-fold), LGHD(SEQ ID NO: 7)-MCA",[3],1 x-fold
same,"Stimulation of cleavage (x-fold), LLE-βNA",[3],0.6 x-fold
same,"Stimulation of cleavage (x-fold), LLVY(SEQ ID NO: 1)-MCA",[3],0.4 x-fold
same,"Stimulation of cleavage (x-fold), LLVY-MCA",[3],0.4 x-fold
same,"Stimulation of cleavage (x-fold), LRR-MCA",[3],12 x-fold and 11 x-fold
same,"Stimulation of cleavage (x-fold), LY-MCA",[3],2 x-fold
same,"Stimulation of cleavage (x-fold), VLK-MCA",[3],5 x-fold
same,"Stimulation of cleavage (x-fold), YVAD(SEQ ID NO: 9)-MCA",[3],0.9 x-fold
same,hydrolysis of the 21-residue peptide P21 by the proteasome (HPLC),[3],Wild-type REGγ decreased hydrolysis of P21 by the proteasome
same,"Stimulation of cleavage (x-fold), LLE-βNA",[4],6 x-fold
same,"Stimulation of cleavage (x-fold), LLVY-MCA",[4],6 x-fold
same,"Stimulation of cleavage (x-fold), LRR-MCA",[4],13 x-fold
same,"Stimulation of cleavage (x-fold), LLE-βNA",[5],5 x-fold
same,"Stimulation of cleavage (x-fold), LLVY-MCA",[5],6 x-fold
same,"Stimulation of cleavage (x-fold), LRR-MCA",[5],13 x-fold
same,"Stimulation of cleavage (x-fold), AAF-MCA",[6],4 x-fold
same,"Stimulation of cleavage (x-fold), DEVD(SEQ ID NO: 8)-MCA",[6],9 x-fold
same,"Stimulation of cleavage (x-fold), FSR-MCA",[6],7 x-fold
same,"Stimulation of cleavage (x-fold), IEGR(SEQ ID NO: 5)-MCA",[6],2 x-fold
same,"Stimulation of cleavage (x-fold), IETD(SEQ ID NO: 6)-MCA",[6],26 x-fold
same,"Stimulation of cleavage (x-fold), LGHD(SEQ ID NO: 7)-MCA",[6],11 x-fold
same,"Stimulation of cleavage (x-fold), LLE-βNA",[6],9 x-fold
same,"Stimulation of cleavage (x-fold), LLVY(SEQ ID NO: 1)-MCA",[6],14 x-fold
same,"Stimulation of cleavage (x-fold), LLVY-MCA",[6],14 x-fold
same,"Stimulation of cleavage (x-fold), LRR-MCA",[6],15 x-fold
same,"Stimulation of cleavage (x-fold), LY-MCA",[6],3 x-fold
same,"Stimulation of cleavage (x-fold), VLK-MCA",[6],6 x-fold
same,"Stimulation of cleavage (x-fold), YVAD(SEQ ID NO: 9)-MCA",[6],8 x-fold
same,hydrolysis of the 21-residue peptide P21 by the proteasome (HPLC),[6],REGγ(K188E or D) and REGα markedly increased sunstrate consumption
same,"% Degraded, substrate F1-EPQPQ (SEQ ID NO: 15), 5 hr",[7],80%
same,"% Degraded, substrate F1-KSQPQ (SEQ ID NO: 16), 5 hr",[7],80%
same,"% Degraded, substrate F1-QHQ, 5 hr",[7],50%
same,"% Degraded, substrate F1-QPQ, 5 hr",[7],50%
same,"% Degraded, substrate F1-QQQ, 5 hr",[7],> 95%
same,"Stimulation of cleavage (x-fold), AAF-MCA",[7],4 x-fold
same,"Stimulation of cleavage (x-fold), DEVD(SEQ ID NO: 8)-MCA",[7],8 x-fold
same,"Stimulation of cleavage (x-fold), FSR-MCA",[7],7 x-fold
same,"Stimulation of cleavage (x-fold), IEGR(SEQ ID NO: 5)-MCA",[7],2 x-fold
same,"Stimulation of cleavage (x-fold), IETD(SEQ ID NO: 6)-MCA",[7],21 x-fold
same,"Stimulation of cleavage (x-fold), LGHD(SEQ ID NO: 7)-MCA",[7],10 x-fold
same,"Stimulation of cleavage (x-fold), LLE-βNA",[7],9 x-fold
same,"Stimulation of cleavage (x-fold), LLVY(SEQ ID NO: 1)-MCA",[7],14 x-fold
same,"Stimulation of cleavage (x-fold), LLVY-MCA",[7],14 x-fold
same,"Stimulation of cleavage (x-fold), LRR-MCA",[7],15 x-fold
same,"Stimulation of cleavage (x-fold), LY-MCA",[7],3 x-fold
same,"Stimulation of cleavage (x-fold), VLK-MCA",[7],6 x-fold
same,"Stimulation of cleavage (x-fold), YVAD(SEQ ID NO: 9)-MCA",[7],7 x-fold
same,hydrolysis of the 21-residue peptide P21 by the proteasome (HPLC),[7],REGγ(K188E or D) and REGα markedly increased sunstrate consumption
same,"Stimulation of cleavage (x-fold), LLE-βNA",[8],4 x-fold
same,"Stimulation of cleavage (x-fold), LLVY-MCA",[8],4 x-fold
same,"Stimulation of cleavage (x-fold), LRR-MCA",[8],13 x-fold
same,"Stimulation of cleavage (x-fold), LLE-βNA",[9],4 x-fold
same,"Stimulation of cleavage (x-fold), LLVY-MCA",[9],5 x-fold
same,"Stimulation of cleavage (x-fold), LRR-MCA",[9],14 x-fold
same,"Stimulation of cleavage (x-fold), LLE-βNA",[10],3 x-fold
same,"Stimulation of cleavage (x-fold), LLVY-MCA",[10],2 x-fold
same,"Stimulation of cleavage (x-fold), LRR-MCA",[10],12 x-fold
same,"Stimulation of cleavage (x-fold), LLE-βNA",[11],5 x-fold
same,"Stimulation of cleavage (x-fold), LLVY-MCA",[11],5 x-fold
same,"Stimulation of cleavage (x-fold), LRR-MCA",[11],14 x-fold
same,"Stimulation of cleavage (x-fold), LLE-βNA",[12],1 x-fold
same,"Stimulation of cleavage (x-fold), LLVY-MCA",[12],1 x-fold
same,"Stimulation of cleavage (x-fold), LRR-MCA",[12],12 x-fold
same,"Stimulation of cleavage (x-fold), LLE-βNA",[13],5 x-fold
same,"Stimulation of cleavage (x-fold), LLVY-MCA",[13],5 x-fold
same,"Stimulation of cleavage (x-fold), LRR-MCA",[13],14 x-fold
same,"Stimulation of cleavage (x-fold), LLE-βNA",[14],0.7 x-fold
same,"Stimulation of cleavage (x-fold), LLVY-MCA",[14],0.7 x-fold
same,"Stimulation of cleavage (x-fold), LRR-MCA",[14],10 x-fold
same,"Stimulation of cleavage (x-fold), LLE-βNA",[15],3 x-fold
same,"Stimulation of cleavage (x-fold), LLVY-MCA",[15],3 x-fold
same,"Stimulation of cleavage (x-fold), LRR-MCA",[15],14 x-fold
